From patent publication US20260185163A1 (Dana-Farber, published 2026)
Ends that are not written are not given here. * marks the point of attachment. FITC = O=C1OC2(c3ccc(O)cc3Oc3cc(O)ccc32)c2ccc(NC(=S)*)cc21

Assays:
Assay in all cases: fluorescence polarization; 1 nM FITC-MLL1 4-43(C-A) probe titrated with StrepII-Avi-TEV-Menin; one site total fit; mean±S.D., N=3
[1] = target: T1, StrepII-Avi-TEV-Menin (wild-type human Menin, recombinant, E. coli) (human, UniProt O00255 1-610)
T1 construct: also called WT Menin; WT-Menin
T1 sequence: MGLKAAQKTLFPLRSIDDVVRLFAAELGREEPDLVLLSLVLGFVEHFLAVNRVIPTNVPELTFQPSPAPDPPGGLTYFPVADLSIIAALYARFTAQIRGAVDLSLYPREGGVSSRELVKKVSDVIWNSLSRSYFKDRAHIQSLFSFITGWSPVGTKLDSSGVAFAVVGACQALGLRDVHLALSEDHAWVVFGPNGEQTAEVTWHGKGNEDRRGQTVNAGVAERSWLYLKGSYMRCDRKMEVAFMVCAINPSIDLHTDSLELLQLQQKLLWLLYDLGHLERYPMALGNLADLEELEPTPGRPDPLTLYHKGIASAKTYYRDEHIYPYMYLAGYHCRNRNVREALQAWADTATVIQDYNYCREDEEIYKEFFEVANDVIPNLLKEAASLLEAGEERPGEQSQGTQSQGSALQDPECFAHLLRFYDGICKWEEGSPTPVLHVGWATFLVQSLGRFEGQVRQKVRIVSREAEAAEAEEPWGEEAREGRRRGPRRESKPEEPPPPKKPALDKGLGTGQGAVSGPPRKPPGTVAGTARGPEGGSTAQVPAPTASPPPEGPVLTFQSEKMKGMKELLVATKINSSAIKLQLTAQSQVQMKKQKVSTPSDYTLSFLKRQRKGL
Method: (§1) To derive the FITC-MLL1₄₋₄₃(C-A) peptide Kd. FITC-conjugated MLL1₄₋₄₃(C-A) peptide probe at final concentration of 1 nM was mixed with increasing concentration of purified StrepII-Avi-TEV-Menin (5 μM final top concentration, 2-fold, 23-point dilution and a buffer control) in an assay buffer (50 mM Tris pH 7.5, 200 mM NaCl, 0.1% Pluronic F-68 solution (Sigma)) in 384-well microplates at 15 μL assay volume (Corning, 4514) and incubated for 30 min at room temperature (RT). For all assays change in fluorescence polarization was monitored using a PHERAstar FS microplate reader (BMG Labtech). […] In competitive titration experiments Menin proteins (1 nM WT, 1 nM M327I or 3 nM for T349M) and 1 nM FITC-conjugated MLL1₄₋₄₃(C-A) peptide probe were incubated in an assay buffer for 30 min. SNDX-5613 was then dispensed to 384-well microplate (Corning, 4514) containing 15 μL of the assay mix using D300e Digital Dispenser (HP) and normalized to 1% DMSO followed by 90 min incubation. The fluorescence polarization was monitored by PHERAstar FS microplate reader (BMG Labtech). The MLL1₄₋₄₃(WT) and MLL1₄₋₄₃(C-A) peptide titrations were performed by addition of 7.5 μL of 2-fold 23-point serial dilution into 7.5 μL of assay mix with the final concentrations of 1 nM FITC-conjugated MLL₄₋₄₃ peptide probe, 1 nM WT Menin or 1 nM Menin M327I or 3 nM Menin T349M in assay buffer. The fluorescence polarization was monitored by PHERAstar FS microplate reader (BMG Labtech). For analysis of the competitive titration experiments the last 10 cycles of the data were averaged to obtain technical replicates. Data from three independent replicates (n=3) was plotted and IC₅₀ values estimated using variable slope equation in GraphPad Prism 9. The calculation of Kᵢ values was performed using Kᵢ calculator available at websites.umich.edu/˜shaomengwanglab/software/calc_ki/index.html²³.

[2] = target: T2, StrepII-Avi-TEV-Menin M327I (recombinant mutant human Menin) (human, UniProt O00255 1-610)
T2 construct: The mutant plasmid was made from the wild-type StrepII-Avi-TEV Menin construct; also called M327I-mutant Menin; M327I Menin
T2 sequence: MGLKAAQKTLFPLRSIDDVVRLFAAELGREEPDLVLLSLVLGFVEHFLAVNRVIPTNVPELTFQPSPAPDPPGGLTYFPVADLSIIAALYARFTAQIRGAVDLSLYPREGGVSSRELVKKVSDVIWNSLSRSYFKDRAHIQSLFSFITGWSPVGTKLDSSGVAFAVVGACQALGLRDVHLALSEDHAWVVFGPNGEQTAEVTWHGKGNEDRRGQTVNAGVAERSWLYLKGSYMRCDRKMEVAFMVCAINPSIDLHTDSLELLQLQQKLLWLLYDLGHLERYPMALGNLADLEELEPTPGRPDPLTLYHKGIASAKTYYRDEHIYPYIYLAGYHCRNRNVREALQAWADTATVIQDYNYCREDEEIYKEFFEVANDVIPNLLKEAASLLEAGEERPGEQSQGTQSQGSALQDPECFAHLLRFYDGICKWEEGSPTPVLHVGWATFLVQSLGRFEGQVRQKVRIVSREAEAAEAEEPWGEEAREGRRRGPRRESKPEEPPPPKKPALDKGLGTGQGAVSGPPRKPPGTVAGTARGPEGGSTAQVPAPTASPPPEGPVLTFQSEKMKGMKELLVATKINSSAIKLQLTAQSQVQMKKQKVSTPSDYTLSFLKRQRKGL
Method: as §1

[3] = target: T3, StrepII-Avi-TEV-Menin T349M (recombinant mutant human Menin) (human, UniProt O00255 1-610)
T3 construct: The mutant plasmid was made from the wild-type StrepII-Avi-TEV Menin construct; also called T349M-mutant Menin; T349M Menin
T3 sequence: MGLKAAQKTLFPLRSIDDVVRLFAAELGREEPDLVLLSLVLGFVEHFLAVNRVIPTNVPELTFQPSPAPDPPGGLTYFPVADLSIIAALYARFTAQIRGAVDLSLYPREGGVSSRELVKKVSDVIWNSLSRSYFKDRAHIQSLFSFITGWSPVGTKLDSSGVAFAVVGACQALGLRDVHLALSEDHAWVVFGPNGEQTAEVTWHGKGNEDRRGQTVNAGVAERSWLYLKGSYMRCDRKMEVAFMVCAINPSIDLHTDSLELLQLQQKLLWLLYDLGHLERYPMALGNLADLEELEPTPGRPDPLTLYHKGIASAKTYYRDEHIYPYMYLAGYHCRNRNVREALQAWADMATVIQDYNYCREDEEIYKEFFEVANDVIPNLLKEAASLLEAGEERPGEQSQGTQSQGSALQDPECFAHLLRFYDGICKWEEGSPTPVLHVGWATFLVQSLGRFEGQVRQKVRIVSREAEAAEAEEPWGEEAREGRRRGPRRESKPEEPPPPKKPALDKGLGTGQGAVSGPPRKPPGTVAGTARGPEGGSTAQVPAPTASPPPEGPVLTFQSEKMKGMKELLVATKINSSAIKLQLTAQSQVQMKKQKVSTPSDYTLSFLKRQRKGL
Method: as §1

- Kd [1]: 0.76 nM
- Kd [2]: 0.91 nM
- Kd [3]: 2.99 nM
B1: N-terminal FITC-conjugated MLL1 4-43(C-A) peptide probe (peptide)
peptide: {FITC}-SARWRFPARPGTTGGGGGGGRRGLGGAPRQRVPALLLPPGY
modifications: not fully specified
notes: also called FITC-MLL14-43(C-A) peptide; MLL1 peptide
